How the values were obtained:
[1] = tested on: C7.GAT C7 finger-3 helix RSDERKR replaced by TSGNLVR (SEQ 51) (synthetic); test: EMSA; conditions: [none]; gel mobility shift; exact target oligo not stated
[2] = tested on: C7.GCG (C7) none; finger-3 helix RSDERKR (SEQ 50) (synthetic); test: EMSA; conditions: CITED Segal 1999, exact target oligo not stated; cited from earlier work

Question: Which Kd [1] does the source give for “GATTGGGCG (double strand) [C7.GAT target, finger-2 subsite TGG]” here?
Answer: 400 nM

Question: With “GCGTGGGCG (double strand) [C7 target, finger-2 subsite TGG]” as the sequence, how does the Kd [2] read?
Answer: 0.5 nM
